Results: paper PMC12501149

Biological target: biotinylated RBD of TcsL (Paeniclostridium sordellii) (UniProt Q46342)
Assay: SPR

Chain of biotinylated RBD of TcsL (Paeniclostridium sordellii) (Q46342 whole entry): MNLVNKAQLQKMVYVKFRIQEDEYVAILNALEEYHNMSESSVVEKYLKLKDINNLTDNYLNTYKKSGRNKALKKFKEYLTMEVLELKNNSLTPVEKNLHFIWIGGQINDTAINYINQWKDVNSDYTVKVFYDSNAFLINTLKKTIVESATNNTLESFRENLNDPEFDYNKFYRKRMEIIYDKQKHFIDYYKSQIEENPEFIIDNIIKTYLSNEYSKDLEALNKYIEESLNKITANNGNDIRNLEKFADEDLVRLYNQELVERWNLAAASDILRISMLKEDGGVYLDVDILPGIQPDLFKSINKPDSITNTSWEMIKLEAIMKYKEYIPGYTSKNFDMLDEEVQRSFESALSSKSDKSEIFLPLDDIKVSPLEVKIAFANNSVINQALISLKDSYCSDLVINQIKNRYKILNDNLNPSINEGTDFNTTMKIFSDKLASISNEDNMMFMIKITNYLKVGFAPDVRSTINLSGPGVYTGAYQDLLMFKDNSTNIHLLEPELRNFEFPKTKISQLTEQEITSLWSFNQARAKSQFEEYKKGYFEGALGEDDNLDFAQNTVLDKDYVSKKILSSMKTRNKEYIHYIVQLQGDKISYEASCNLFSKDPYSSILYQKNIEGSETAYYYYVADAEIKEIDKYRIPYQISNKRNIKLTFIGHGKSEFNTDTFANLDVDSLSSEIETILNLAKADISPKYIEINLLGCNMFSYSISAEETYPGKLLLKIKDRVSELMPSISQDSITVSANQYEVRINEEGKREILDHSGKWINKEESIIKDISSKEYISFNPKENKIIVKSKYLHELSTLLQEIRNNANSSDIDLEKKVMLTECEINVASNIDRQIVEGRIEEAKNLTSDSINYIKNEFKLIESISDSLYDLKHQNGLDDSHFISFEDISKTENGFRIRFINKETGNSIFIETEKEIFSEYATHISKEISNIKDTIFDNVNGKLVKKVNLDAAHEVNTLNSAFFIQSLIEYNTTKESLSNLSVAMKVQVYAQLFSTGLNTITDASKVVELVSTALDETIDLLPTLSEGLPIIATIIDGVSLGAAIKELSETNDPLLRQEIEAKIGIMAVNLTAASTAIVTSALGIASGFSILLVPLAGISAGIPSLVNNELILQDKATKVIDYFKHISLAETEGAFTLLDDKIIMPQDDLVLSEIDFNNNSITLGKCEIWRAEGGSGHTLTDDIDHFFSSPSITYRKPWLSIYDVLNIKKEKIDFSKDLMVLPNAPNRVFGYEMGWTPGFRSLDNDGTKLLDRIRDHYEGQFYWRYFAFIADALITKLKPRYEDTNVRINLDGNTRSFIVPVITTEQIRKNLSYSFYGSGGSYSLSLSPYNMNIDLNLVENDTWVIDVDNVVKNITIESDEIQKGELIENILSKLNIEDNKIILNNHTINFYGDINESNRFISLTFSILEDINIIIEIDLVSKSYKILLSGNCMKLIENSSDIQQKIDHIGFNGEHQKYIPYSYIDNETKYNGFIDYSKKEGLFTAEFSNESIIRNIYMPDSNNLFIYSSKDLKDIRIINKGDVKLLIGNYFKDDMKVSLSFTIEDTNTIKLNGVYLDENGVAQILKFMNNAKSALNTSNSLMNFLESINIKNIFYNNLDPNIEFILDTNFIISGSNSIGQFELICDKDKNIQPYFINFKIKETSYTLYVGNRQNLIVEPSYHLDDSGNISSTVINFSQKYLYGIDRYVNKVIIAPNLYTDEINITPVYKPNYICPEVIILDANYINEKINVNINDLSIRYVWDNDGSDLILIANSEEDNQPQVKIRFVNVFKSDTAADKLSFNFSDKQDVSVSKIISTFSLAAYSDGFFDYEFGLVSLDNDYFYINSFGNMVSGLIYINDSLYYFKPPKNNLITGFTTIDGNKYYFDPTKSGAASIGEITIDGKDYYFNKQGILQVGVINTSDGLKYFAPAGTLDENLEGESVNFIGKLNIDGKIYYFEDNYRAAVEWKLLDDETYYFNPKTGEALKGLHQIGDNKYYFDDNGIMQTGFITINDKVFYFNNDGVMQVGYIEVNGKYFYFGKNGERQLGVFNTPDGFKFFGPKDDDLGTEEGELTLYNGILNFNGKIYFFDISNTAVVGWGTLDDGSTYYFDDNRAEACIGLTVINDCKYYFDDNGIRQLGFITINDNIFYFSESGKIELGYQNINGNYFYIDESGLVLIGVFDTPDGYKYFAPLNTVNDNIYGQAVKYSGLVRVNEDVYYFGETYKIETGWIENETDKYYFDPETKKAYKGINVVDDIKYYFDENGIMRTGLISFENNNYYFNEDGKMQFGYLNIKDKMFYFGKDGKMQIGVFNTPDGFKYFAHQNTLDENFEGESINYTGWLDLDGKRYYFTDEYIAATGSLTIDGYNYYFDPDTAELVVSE

Kd: 18.3 pM
koff: 0.000125 s⁻¹
kon: 6.86e+06 M⁻¹ s⁻¹
B1: B10 (designed binder)
chain: NEEIIKEIKQLLKEGKKASEIIELLKKNGYEEIAKDAELAALKSKDMRKAAAETAIKKLE
